The assay has as its target Fzd7/Sdc4 co-receptor complex (mouse) (UniProt Q61090). Briefly: cell-based or functional assay.

Sequence of Fzd7/Sdc4 co-receptor complex (mouse) (O35988 24-198, chain 2 of 2, other chains not shown): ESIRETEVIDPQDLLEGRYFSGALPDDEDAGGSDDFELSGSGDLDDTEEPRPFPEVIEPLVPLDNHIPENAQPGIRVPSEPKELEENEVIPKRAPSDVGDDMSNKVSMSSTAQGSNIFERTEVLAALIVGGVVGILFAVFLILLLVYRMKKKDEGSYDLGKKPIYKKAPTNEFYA

“human plasma fibronectin (BD biosciences) (from UniProt P02751 32-2296) (ligand)” gave an increase in numbers of Pax7+/YFP+ cells, FN&Wnt7a condition, 72 h of 38%; an increase in numbers of satellite stem cells, FN&Wnt7a relative to COL&Wnt7a, 72 h of 156%; an increase in the proportion of symmetric Pax7+/YFP- cell divisions, FN&Wnt7a, 42 h of 163%.

On to “recombinant Wnt7a (R&D Systems) (ligand)”, for which the increase in the proportion of symmetric cell divisions, COL&Wnt7a against COL alone, 42 h came to 108%.

These data come from patent US20150111822A1.
